Laboratory results: patent publication US20250297032A1 (CONCEPT TO MEDICINE BIOTECH, published 2025)
One block for each binder: values may come before it.

Columns and labels:
[1] = biological target: T1, human FAPα-His tag (Sino biological) (human, UniProt Q12884 26-760); test: competitive ELISA on coated human FAPα; competitor (detected): FAP-I38-Bio
T1 construct: Bought protein; also called human FAPα-His protein; not shown: His tag
T1 sequence (looked up): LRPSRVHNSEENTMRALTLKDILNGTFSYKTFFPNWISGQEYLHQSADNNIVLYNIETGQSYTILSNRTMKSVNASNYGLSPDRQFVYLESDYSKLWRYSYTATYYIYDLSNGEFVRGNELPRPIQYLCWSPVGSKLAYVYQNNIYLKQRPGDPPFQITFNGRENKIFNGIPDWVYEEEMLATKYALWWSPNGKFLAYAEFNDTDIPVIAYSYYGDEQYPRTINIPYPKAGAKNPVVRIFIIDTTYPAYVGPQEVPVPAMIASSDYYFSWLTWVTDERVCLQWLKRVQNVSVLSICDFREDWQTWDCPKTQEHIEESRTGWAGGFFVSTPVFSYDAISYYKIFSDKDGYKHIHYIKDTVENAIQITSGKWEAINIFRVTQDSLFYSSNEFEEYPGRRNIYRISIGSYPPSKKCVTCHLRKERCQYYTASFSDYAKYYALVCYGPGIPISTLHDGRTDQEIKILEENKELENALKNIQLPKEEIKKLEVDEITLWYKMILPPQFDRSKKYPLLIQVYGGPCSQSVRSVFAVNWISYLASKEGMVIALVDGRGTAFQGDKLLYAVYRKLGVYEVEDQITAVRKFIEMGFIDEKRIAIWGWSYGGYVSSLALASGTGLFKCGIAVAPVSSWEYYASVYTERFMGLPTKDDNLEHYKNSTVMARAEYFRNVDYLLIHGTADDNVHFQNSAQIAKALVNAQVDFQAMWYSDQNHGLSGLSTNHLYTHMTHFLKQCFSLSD
Procedure: (§1) Briefly, microtiter plates were coated with human FAPα proteins at 0.5 μg/ml in PBS, 100 μl/well at 4° C. overnight, then blocked with 150 μl/well of 1% BSA. Serial dilutions of chimeric antibodies as well as biotin-conjugated reference mAb were added to each well and incubated for 1 hour at RT. The plates were washed with PBS/Tween and then incubate with streptavidin-HRP for 15 mins at RT. After washing, the plates were developed with TMB substrate and analyzed by spectrophotometer at OD 450 nm. According to the competition ability to reference mAbs (Benchmark, or “BMK”), all tested FAPα mAbs binds to the similar epitope as shown in Table 5.

mouse FAPα-His protein = biological target: T2, mouse FAPα-His protein (mouse, UniProt P97321 26-761, limits assumed); test: ELISA, plate coated with mouse FAPα-His, anti-human IgG-HRP, OD 450 nm
T2 construct: not shown: His tag
T2 sequence (looked up): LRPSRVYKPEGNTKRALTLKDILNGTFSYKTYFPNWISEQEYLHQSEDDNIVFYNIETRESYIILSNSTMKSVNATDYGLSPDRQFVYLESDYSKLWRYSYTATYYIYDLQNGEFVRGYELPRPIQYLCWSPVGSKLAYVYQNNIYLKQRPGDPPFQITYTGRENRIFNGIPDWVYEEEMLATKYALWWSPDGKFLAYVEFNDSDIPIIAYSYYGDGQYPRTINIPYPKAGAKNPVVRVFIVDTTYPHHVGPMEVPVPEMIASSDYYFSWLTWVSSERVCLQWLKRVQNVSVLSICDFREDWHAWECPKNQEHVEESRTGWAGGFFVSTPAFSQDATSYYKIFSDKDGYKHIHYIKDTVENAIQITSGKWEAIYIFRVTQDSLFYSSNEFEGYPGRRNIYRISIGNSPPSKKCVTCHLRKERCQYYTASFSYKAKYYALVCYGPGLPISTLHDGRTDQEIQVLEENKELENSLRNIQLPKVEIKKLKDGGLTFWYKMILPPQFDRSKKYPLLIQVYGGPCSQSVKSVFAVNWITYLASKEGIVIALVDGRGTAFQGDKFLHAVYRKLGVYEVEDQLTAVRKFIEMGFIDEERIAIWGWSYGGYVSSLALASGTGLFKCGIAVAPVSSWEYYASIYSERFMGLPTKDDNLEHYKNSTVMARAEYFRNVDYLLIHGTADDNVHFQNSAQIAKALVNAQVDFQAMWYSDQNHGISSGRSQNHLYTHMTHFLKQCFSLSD
Procedure: (§2) Briefly, microtiter plates were coated with mouse FAPα-His protein at 0.5 ug/ml in PBS, 100 μl/well at 4° C. overnight, then blocked with 150 μl/well of 1% BSA. Three-fold dilutions of tested antibodies starting from 1 μg/ml were added to each well and incubated for 1 hour at 37° C. The plates were washed with PBS/Tween and then incubated with Anti-Human IgG (H&L) (GOAT) Antibody Peroxidase Conjugated for 30 mins at 37° C. After washing, the plates were developed with TMB substrate and analyzed by spectrophotometer at OD 450 nm.

[2] = biological target: T1, human FAPα-His tag (Sino biological); test: competitive ELISA on coated human FAPα; competitor (detected): FAP-G14-Bio
Procedure: (§3) Competitive ELISA was carried out to classify the FAPα mAbs based on the binding epitope to human FAPα.
as §1

[3] = biological target: T1, human FAPα-His tag (Sino biological); test: competitive ELISA on coated human FAPα; competitor (detected): FAP-I30-Bio
Procedure: as §1

[4] = biological target: T1, human FAPα-His tag (Sino biological); test: ELISA, coated human FAPα-His
Procedure: as §2, with “human” for “mouse”, “nm. […] FAP-4B9 clone from Roche was served as positive control which labeled as FAPα-BMK.” for “nm.”

[5] = biological target: T1, human FAPα-His tag (Sino biological); test: competitive ELISA on coated human FAPα; competitor (detected): FAPα (BMK)-Bio
Procedure: as §1

[6] = biological target: T1, human FAPα-His tag (Sino biological); test: competitive ELISA on coated human FAPα; biotinylated mAb alone, no competing Ab (row '0')
Procedure: as §1

[7] = biological target: T1, human FAPα-His tag (Sino biological); test: competitive ELISA on coated human FAPα; competitor (detected): FAP-G52-Bio
Procedure: as §1

[8] = biological target: T1, human FAPα-His tag (Sino biological); test: competitive ELISA on coated human FAPα; competitor (detected): FAP-I37-Bio
Procedure: as §3, §1

[9] = biological target: T1, human FAPα-His tag (Sino biological); test: competitive ELISA on coated human FAPα; competitor (detected): FAP-J40-Bio
Procedure: as §1

[10] = biological target: T1, human FAPα-His tag (Sino biological); test: SPR (Biacore T200), mAb captured on Protein A chip, human FAPα-His as analyte
Procedure: The binding of the tested antibodies to recombinant FAPα protein (human FAPα-his tag) was tested with Biacore using a capture method. The mAbs were captured using Protein A chip. A serial dilution of human FAPα-his tag protein was injected over captured antibody for 3 mins at a flow rate of 30 μl/min. The antigen was allowed to dissociate for 800s. All the experiments were carried out on a Biacore T200. Data analysis was carried out using the Biacore T200 evaluation software.

[11] = biological target: T3, human FAPα on CHO-K1-hFAPα cells (human, UniProt Q12884 1-760); test: flow cytometry on CHO-K1-hFAPα cells (MFI of PE); set-up: unit not given beside the values
T3 construct: whole, on cells; also called cell-surface FAPα
T3 sequence (looked up): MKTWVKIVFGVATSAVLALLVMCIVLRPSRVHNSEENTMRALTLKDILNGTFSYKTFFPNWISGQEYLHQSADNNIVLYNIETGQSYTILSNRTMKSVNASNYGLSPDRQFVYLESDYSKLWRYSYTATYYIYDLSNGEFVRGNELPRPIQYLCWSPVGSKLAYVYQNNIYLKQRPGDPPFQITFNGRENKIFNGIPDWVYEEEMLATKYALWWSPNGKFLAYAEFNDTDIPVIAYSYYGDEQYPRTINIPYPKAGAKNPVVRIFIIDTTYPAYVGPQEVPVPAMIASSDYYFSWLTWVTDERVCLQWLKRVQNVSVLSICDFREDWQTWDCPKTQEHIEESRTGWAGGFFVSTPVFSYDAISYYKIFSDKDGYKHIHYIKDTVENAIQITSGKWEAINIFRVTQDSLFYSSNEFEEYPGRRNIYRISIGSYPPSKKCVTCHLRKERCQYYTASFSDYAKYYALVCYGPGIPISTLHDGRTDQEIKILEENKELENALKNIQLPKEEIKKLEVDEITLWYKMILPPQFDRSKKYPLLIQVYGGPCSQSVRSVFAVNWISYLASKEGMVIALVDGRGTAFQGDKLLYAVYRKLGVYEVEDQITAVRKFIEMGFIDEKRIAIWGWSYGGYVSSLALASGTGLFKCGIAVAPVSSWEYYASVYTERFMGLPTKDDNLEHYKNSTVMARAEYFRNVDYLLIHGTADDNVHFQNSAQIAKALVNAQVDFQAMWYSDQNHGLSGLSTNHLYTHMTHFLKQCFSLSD
Procedure: (§4) To evaluate the cell-based binding property to human FAPα, the tested antibodies were analyzed for their binding to CHO-K1-hFAPα by FACS. A total number of 1×10⁵ CHO-K1-hFAPα cells in each well were incubated with 4-fold serial diluted antibodies starting from 3 μg/ml for 30 minutes at 4° C. in FACS buffer. After wash by FACS buffer, PE conjugated-anti-human IgG antibody was added to each well and incubated at 4° C. for 30 minutes. After wash, MFI of PE was evaluated by MACSQuant Analyzer 16.

[12] = biological target: T3, human FAPα on CHO-K1-hFAPα cells; test: flow cytometry on CHO-K1-hFAPα cells
Procedure: as §4

OD 450 nm [1]: 0.466 OD 450 nm
binding result (mouse FAPα-His protein): no binding (tested: 1000 ng/ml)
OD 450 nm [2]: 0.358 OD 450 nm
OD 450 nm [3]: 0.302 OD 450 nm
EC50 [4]: 9.48 ng/mL
OD 450 nm [5]: 0.304 OD 450 nm
OD 450 nm [6]: 1.26 OD 450 nm
OD 450 nm [7]: 0.283 OD 450 nm
OD 450 nm [8]: 0.399 OD 450 nm
OD 450 nm [9]: 0.298 OD 450 nm
Kd [10]: 0.446 nM
koff [10]: 1.81e-05 s⁻¹
kon [10]: 40500 M⁻¹ s⁻¹
B1: G52 (antibody, V domains shown)
VH: EVQLLESGGDLVQPGGSLRLSCAASGFTFSSYAMSWVRQAPGKGLEWVSGISNGGDSIAYADSVKGRFTVFRDNAKNTLYLQMNSLRAEDTAIYYCARGNYYAHDDWGQGTLVTVSA
VL: DIQLTQSPSSVSASVGDRVTITCRASQGVGSWLAWYQQKPGKPPKLLIYAASSLQSGVPSRFSGSGSGTDFTLTISSLQPEDFATYYCQQANSFPLTFGGGTKVEIK
notes: Tested as a mAb; also called FAP-G52; FAP-G52-Bio (biotin-conjugated form)

OD 450 nm [1]: 0.396 OD 450 nm
Cmax [11]: 189
EC50 [12]: 0.026 ng/mL
OD 450 nm [2]: 0.149 OD 450 nm
OD 450 nm [3]: 0.22 OD 450 nm
EC50 [4]: 4.89 ng/mL
OD 450 nm [5]: 0.154 OD 450 nm
OD 450 nm [6]: 1.21 OD 450 nm
OD 450 nm [7]: 0.176 OD 450 nm
OD 450 nm [8]: 0.282 OD 450 nm
OD 450 nm [9]: 0.226 OD 450 nm
Kd [10]: 1.12 nM
koff [10]: 0.000116 s⁻¹
kon [10]: 103000 M⁻¹ s⁻¹
B2: I38 (antibody, V domains shown)
VH: EVQLVQSGAEVKEPGVSVKVSCKASGYTFASYGLSWVRLAPGQGLQWMGWISPYTPNPIYAPNFRDKVILTTDRSTNTAYLEVRSLRSDDTGLYYCARNHWVGRPTRAFDLWGQGTMVTVSA
VL: EIVLTQSPGTLSLSPGERATLSCRASQTVSITHLAWYQQKPGQAPRLLTYGASARATGIPDRFSVSGSGTDFTLTITRLEPEDFAVYYCQHYGSSITFGGGTKVEIK
notes: Tested as a mAb; also called FAP-I38

binding result (mouse FAPα-His protein): no binding (tested: 1000 ng/ml)
Cmax [11]: 149
EC50 [12]: 0.029 ng/mL
EC50 [4]: 3.94 ng/mL
Kd [10]: 1.78 nM
koff [10]: 0.000594 s⁻¹
kon [10]: 333000 M⁻¹ s⁻¹
B3: J59 (antibody, V domains shown)
VH: QVQLLESGGGVVQPGRSLRLSCAASGFTFSSYGMHWVRQAPGKGLEWVAVISYDGSNKYYADSVKGRFTISRDNSKNTLYLQMNSLRADDTAVYYCARESYTGLGSFLHWGQGTLVTVSA
VL: NIQLTQSPSSLSASVGDRVTITCRASQTISNYLNWYQQKPGKAPKLLISAASSLQGGVPSRFSGSGSGTDFTLAISSLQPEDSATYYCQYWGTFGQGTKLEIK
notes: Tested as a mAb
